The values that follow come from US20230114801A1 (SYSTIMMUNE, published 2023).

Assay [1] concerns the target T1, human CD3 (human, UniProt P07766 23-126; P04234 22-105).
T1 construct: also called His-tagged human CD3; human CD3 (Acro CDD-H52W1)
The assay is described as follows: BLI (Octet), binder on AHC sensor, His-tagged human CD3 (series from 200 nM or single 100 nM), 1:1 fit. A general note: In BLI a coated tip is dipped into the sample, and binding shifts an interference pattern.

The target in assay [2] is T2, human 4-1BB (human, UniProt Q07011 24-186, limits assumed).
T2 construct: Soluble antigen in Octet; construct not described
Nature of the assay: BLI (Octet), binder on AHC sensor; antigen conditions not stated.

The target of assay [3] is T3, human PD-L1 (human, UniProt Q9NZQ7 19-238).
T3 construct: Soluble antigen in Octet; bought; also called human PD-L1 (Acro PD1-H5229)
Described as above.

For assay [4], the target named is T4, CD19 (UniProt P15391 20-291, limits assumed).
T4 sequence (looked up): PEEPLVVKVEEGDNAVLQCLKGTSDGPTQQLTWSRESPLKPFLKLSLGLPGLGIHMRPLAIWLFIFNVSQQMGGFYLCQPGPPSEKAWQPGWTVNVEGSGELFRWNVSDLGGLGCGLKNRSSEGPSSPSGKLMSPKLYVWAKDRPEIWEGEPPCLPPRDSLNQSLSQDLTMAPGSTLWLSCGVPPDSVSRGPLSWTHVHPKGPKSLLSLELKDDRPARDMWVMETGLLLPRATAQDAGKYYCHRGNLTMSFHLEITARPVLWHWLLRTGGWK
Described as above.

B1: SI-68P17 (other)
chain 1: DVVMTQSPSTLSASVGDRVTINCQASESISSWLAWYQQKPGKAPKLLIYEASKLASGVPSRFSGSGSGTEFTLTISSLQPDDFATYYCQGYFYFISRTYVNSFGGGTKVEIKGGGGSGGGGSGGGGSGGGGSEVQLVESGGGLVQPGGSLRLSCAASGFTISTNAMSWVRQAPGKGLEWIGVITGRDITYYASWAKGRFTISRDNSKNTLYLQMNSLRAEDTAVYYCARDGGSSAITSNNIWGQGTLVTVSSGGGGSGGGGSQVQLQQSGPGLVKPSETLSITCTVSGFSLTNYGVHWIRQAPGKGLEWLGVIWSGGNTDYNTPFTSRFTITKDNSKNQVYFKLRSVRADDTAIYYCARALTYYDYEFAYWGQGTLVTVSSASTKGPSVFPLAPSSKSTSGGTAALGCLVKDYFPEPVTVSWNSGALTSGVHTFPAVLQSSGLYSLSSVVTVPSSSLGTQTYICNVNHKPSNTKVDKRVEPKSCDKTHTCPPCPAPEAAGGPSVFLFPPKPKDTLMISRTPEVTCVVVDVSHEDPEVKFNWYVDGVEVHNAKTKPREEQYNSTYRVVSVLTVLHQDWLNGKEYKCAVSNKALPAPIEKTISKAKGQPREPQVYTLPPSRDELTKNQVSLSCAVKGFYPSDIAVEWESNGQPENNYKTTPPVLDSDGSFFLVSKLTVDKSRWQQGNVFSCSVMHEALHNHYTQKSLSLSPGGGGGSGGGGSDVVMTQSPSSVSASVGDRVTITCQASQNIRTYLSWYQQKPGKAPKLLIYAAANLASGVPSRFSGSGSGTDFTLTISDLEPGDAATYYCQSTYLGTDYVGGAFGGGTKLTVLGGGGSGGGGSGGGGSGGGGSEVQLVESGGGLVQPGGSLRLSCTASGFTISSYHMQWVRQAPGKGLEYIGTISSGGNVYYASSARGRFTISRPSSKNTVDLQMNSLRAEDTAVYYCARDSGYSDPMWGQGTLVTVSS
chain 2: ENVLTQSPASLSASPGERVTITCSASSSVSYMHWYQQKPGQAPKLWIYDTSKLASGVPSRFSGSGSGNDHTLTISSMEPEDFATYYCFQGSVYPFTFGQGTKVTVLGGGGSGGGGSGGGGSGGGGSQVTLKESGPGLVQPGQTLSLTCAFSGFSLSTSGMGVGWIRQPPGKGLEWLAHIWWDDDKRYNPALKSRLTISKDTSKNQVYLQMNSLDAEDTAVYYCARMELWSYYFDYWGQGTLVTVSSGGGGSGGGGSEIVLTQSPSTLSVSPGERATFSCRASQSIGTNIHWYQQKPGKPPRLLIKYASESISGIPDRFSGSGSGTEFTLTISSVQSEDFAVYYCQQNNNWPTTFGPGTKLTVLRTVAAPSVFIFPPSDEQLKSGTASVVCLLNNFYPREAKVQWKVDNALQSGNSQESVTEQDSKDSTYSLSSTLTLSKADYEKHKVYACEVTHQGLSSPVTKSFNRGECGGDKTHTCPPCPAPEAAGGPSVFLFPPKPKDTLMISRTPEVTCVVVDVSHEDPEVKFNWYVDGVEVHNAKTKPREEQYNSTYRVVSVLTVLHQDWLNGKEYKCAVSNKALPAPIEKTISKAKGQPREPQVYTLPPSRDELTKNQVSLWCLVKGFYPSDIAVEWESNGQPENNYKTTPPVLDSDGSFFLYSKLTVDKSRWQQGNVFSCSVMHEALHNRFTQKSLSLSPGGGGGSGGGGSDIQMTQSPSTLSASVGDRVTITCQASQSISSHLNWYQQKPGKAPKLLIYKASTLASGVPSRFSGSGSGTEFTLTISSLQPDDFATYYCQQGYSWGNVDNVFGGGTKVTVLGGGGSGGGGSGGGGSGGGGSEVQLLESGGGLVQPGGSLSLSCAASGFSFSSGYDMCWVRQAPGKGLEWIACIAAGSAGITYDANWAKGRFTISRDNSKNTLYLQMNSLRAEDTAVYYCARSAFSFDYAMDLWGQGTLVTVSS
notes: penta-miniGNC; D1 αCD3, D2 αCD19, D3 αEGFR (Fab), D4 α4-1BB, D5 αPD-L1
In the case of B1, the Kd – broadly, the concentration at which binding is half-saturated – in assay [1] was determined as 15.8 nM; in assay [2] it was 26.8 nM; in assay [3], 2.72 nM; in assay [4], 5.05 nM.

B2: SI-68P18 (other)
chain 1: DVQMTQSPSTLSATVGQRVTINCQASESISSWLAWYQQKPGQPPKLLIYEASKLASGVPSRFSGSGSGTEFTLTISSLQSDDFATYYCQGYFYFISRTYVNSFGGGTRVEIKGGGGSGGGGSGGGGSGGGGSQQLLESGGRLIKPGATLRLTCKTSGFTISTNAMSWVRQPPGKGLEWIGVITGRDITYYASWAKGRFTISKTSINTVFLQMRSLRAEDTAVYYCARDGGSSAITSNNIWGRGTLVTVSSGGGGSGGGGSQVQLQQSGPGLVKPSETLSITCTVSGFSLTNYGVHWIRQAPGKGLEWLGVIWSGGNTDYNTPFTSRFTITKDNSKNQVYFKLRSVRADDTAIYYCARALTYYDYEFAYWGQGTLVTVSSASTKGPSVFPLAPSSKSTSGGTAALGCLVKDYFPEPVTVSWNSGALTSGVHTFPAVLQSSGLYSLSSVVTVPSSSLGTQTYICNVNHKPSNTKVDKRVEPKSCDKTHTCPPCPAPEAAGGPSVFLFPPKPKDTLMISRTPEVTCVVVDVSHEDPEVKFNWYVDGVEVHNAKTKPREEQYNSTYRVVSVLTVLHQDWLNGKEYKCAVSNKALPAPIEKTISKAKGQPREPQVYTLPPSRDELTKNQVSLSCAVKGFYPSDIAVEWESNGQPENNYKTTPPVLDSDGSFFLVSKLTVDKSRWQQGNVFSCSVMHEALHNHYTQKSLSLSPGGGGGSGGGGSDVVMTQSPSSVSASVGDRVTITCQASQNIRTYLSWYQQKPGKAPKLLIYAAANLASGVPSRFSGSGSGTDFTLTISDLEPGDAATYYCQSTYLGTDYVGGAFGGGTKLTVLGGGGSGGGGSGGGGSGGGGSEVQLVESGGGLVQPGGSLRLSCTASGFTISSYHMQWVRQAPGKGLEYIGTISSGGNVYYASSARGRFTISRPSSKNTVDLQMNSLRAEDTAVYYCARDSGYSDPMWGQGTLVTVSS
chain 2: ENVLTQSPASLSASPGERVTITCSASSSVSYMHWYQQKPGQAPKLWIYDTSKLASGVPSRFSGSGSGNDHTLTISSMEPEDFATYYCFQGSVYPFTFGQGTKVTVLGGGGSGGGGSGGGGSGGGGSQVTLKESGPGLVQPGQTLSLTCAFSGFSLSTSGMGVGWIRQPPGKGLEWLAHIWWDDDKRYNPALKSRLTISKDTSKNQVYLQMNSLDAEDTAVYYCARMELWSYYFDYWGQGTLVTVSSGGGGSGGGGSEIVLTQSPSTLSVSPGERATFSCRASQSIGTNIHWYQQKPGKPPRLLIKYASESISGIPDRFSGSGSGTEFTLTISSVQSEDFAVYYCQQNNNWPTTFGPGTKLTVLRTVAAPSVFIFPPSDEQLKSGTASVVCLLNNFYPREAKVQWKVDNALQSGNSQESVTEQDSKDSTYSLSSTLTLSKADYEKHKVYACEVTHQGLSSPVTKSFNRGECGGDKTHTCPPCPAPEAAGGPSVFLFPPKPKDTLMISRTPEVTCVVVDVSHEDPEVKFNWYVDGVEVHNAKTKPREEQYNSTYRVVSVLTVLHQDWLNGKEYKCAVSNKALPAPIEKTISKAKGQPREPQVYTLPPSRDELTKNQVSLWCLVKGFYPSDIAVEWESNGQPENNYKTTPPVLDSDGSFFLYSKLTVDKSRWQQGNVFSCSVMHEALHNRFTQKSLSLSPGGGGGSGGGGSDIQMTQSPSTLSASVGDRVTITCQASQSISSHLNWYQQKPGKAPKLLIYKASTLASGVPSRFSGSGSGTEFTLTISSLQPDDFATYYCQQGYSWGNVDNVFGGGTKVTVLGGGGSGGGGSGGGGSGGGGSEVQLLESGGGLVQPGGSLSLSCAASGFSFSSGYDMCWVRQAPGKGLEWIACIAAGSAGITYDANWAKGRFTISRDNSKNTLYLQMNSLRAEDTAVYYCARSAFSFDYAMDLWGQGTLVTVSS
notes: penta-miniGNC; D1 αCD3*** (humanized framework 2), D2 αCD19, D3 αEGFR (Fab), D4 α4-1BB, D5 αPD-L1
As to B2, the Kd in assay [1] turned out to be 14.5 nM; in assay [2], 7.51 nM; in assay [3] it was 1 nM; in assay [4], 1.35 nM.
